Columns and labels:
APOBEC3G (A3G) [1] = target: T1, APOBEC3G (A3G) (Homo sapiens, UniProt Q9HC16 SEQ:1-384); assay: EMSA; 8 min 37 C; RPA pre-binding inhibits monomeric complex (FIG. 5C); details: tags: C-terminal Myc-His6, expressed in 293T cells; chain copies: monomer to multimer (stated); label: 3' dATP-biotin (TdT)
Protocol: (§1) FIG. 3B. Electro-mobility shift assay (EMSA). The indicated proteins were incubated with biotinylated SC oligonucleotides (80 nt) for 8 min at 37° C. and resolved by native PAGE. Acrylamide gels were transferred to nylon membranes and probed by enhanced chemiluminescence.

APOBEC3G W285A = APOBEC3G W285A (Homo sapiens, UniProt Q9HC16 SEQ:1-384); assay: EMSA; binding similar to wild type; details: tags: C-terminal His6, expressed in 293T cells; label: 3' dATP-biotin (TdT)
APOBEC3G W285A, sequence (Q9HC16 whole entry W285A): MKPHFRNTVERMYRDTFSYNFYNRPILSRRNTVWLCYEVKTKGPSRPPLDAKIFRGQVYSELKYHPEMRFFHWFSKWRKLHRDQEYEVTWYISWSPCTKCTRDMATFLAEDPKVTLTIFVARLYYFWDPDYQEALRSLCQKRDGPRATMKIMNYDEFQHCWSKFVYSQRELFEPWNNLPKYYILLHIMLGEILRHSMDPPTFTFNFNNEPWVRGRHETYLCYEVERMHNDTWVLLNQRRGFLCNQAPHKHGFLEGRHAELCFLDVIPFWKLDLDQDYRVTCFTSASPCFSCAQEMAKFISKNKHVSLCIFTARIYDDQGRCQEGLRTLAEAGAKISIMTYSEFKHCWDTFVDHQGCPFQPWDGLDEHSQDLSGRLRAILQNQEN
Protocol: as §1

APOBEC3G (A3G) [2] = target: T1, APOBEC3G (A3G); assay: EMSA; 8 min RT; details: tags: C-terminal Myc-His6, expressed in 293T cells; chain copies: monomer to multimer (stated)
Protocol: (§2) FIG. 2D. A3G end-dependent association with ssDNA was assessed by electro-mobility shift assay (EMSA). S₁₆₀ oligonucleotide ends (3′, 5′, 3′+5′) were annealed to short complementary oligonucleotides (30 nt) and then incubated with A3G or BSA for 8 min at room temperature (RT). Acrylamide gels were stained with SYBR gold nucleic acid stain.

APOBEC3G (A3G) [3] = target: T1, APOBEC3G (A3G); assay: EMSA; either 3' or 5' ssDNA terminus required; 5' preference; details: tags: C-terminal Myc-His6, expressed in 293T cells, chain copies: monomer to multimer (stated), 3' end 30 nt duplex
Protocol: as §2

T1 sequence (Q9HC16 whole entry): as the sequence (Q9HC16 whole entry W285A) above, with A285W counted along it

B1: SC (ssDNA)
DNA: GGATTGGTTGGTTATTTGTTTAAGGAAGGTGGATTAAAGGCCCATAAGGTGATGGAAGTTATGTTTGGTAGATTGATGG
APOBEC3G (A3G) [1]
  binding result: binds
APOBEC3G W285A
  binding result: binds

B2: S160 (ssDNA)
DNA: GGATTGGTTGGTTATTTGTTTAAGGAAGGAAGAAGGAAGGCCCAATAAGGGAAGGCCCAATAAGTGGGAAGGCCCAATAAGTGAATTAAATAAGTGATTGATAAATAAGTGATTGATAAGTTGATTAAATAGTTGGAAGTTATGTTTGGTAGATTGATGG
APOBEC3G (A3G) [2]
  binding result: binds

B3: S160 with 3' end double-stranded (mixed)
DNA 1: B2 DNA
DNA 2: CCATCAATCTACCAAACATAACTTCCATCA
APOBEC3G (A3G) [3]
  binding result: binds

Source: US20150111836, “CELLULAR APOBEC3 PROTEINS AND MODULATORS THEREOF FOR REGULATING DNA REPAIR PROCESSES AND TREATING PROLIFERATIVE DISEASES” (YISSUM RESEARCH DEVELOPMENT COMPANY OF THE HEBREW …, published 2015)
